The text below walks through data of patent US9890409B2, “Composition for astringin product” (INDUSTRY FOUNDATION OF CHONNAM NATIONAL UNIVERSITY, priority 2015, dated 2018).

This data set in a line: Oxidation of polydatin to astringin (3′-hydroxylation), steady-state kinetics by HPLC. It counts as biochemical. The settings on record: polydatin as substrate, NADPH-generating system, 37° C., 30 minutes, 100 mM potassium phosphate buffer pH 7.4. How it is done:
P450 BM3 50 pmol and […] of polydatin as a substrate were added to 0.25 ml of 100 mM potassium phosphate buffer (pH 7.4) to perform a typical steady-state reaction. In order to start the reaction, the NADPH-generating system (10 mM glucose 6-phosphate, 0.5 mM NADP^+ and 1 IU yeast glucose 6-phosphate-dihydrogenase per 1 ml of final concentration) was added. 20 mM polydatin solution was prepared with DMSO, and diluted with an enzyme reaction solution, thereby preparing a reaction mixture so that the final organic solvent has a concentration of 1%/(v/v) or less. The solution was reacted at 37° C. for 30 minutes, and the reaction was terminated with ethyl-acetate which is cooled by using ice with twice amount.
The reaction mixture was centrifuged, the supernatant was […]. Then, the solvent was evaporated under a nitrogen gas, and analyzed by HPLC. A sample (30 μl) was injected into Gemini C18 column (4.6 mm×150 mm, 5 μm, Phenomenex, Torrance, Calif.). […] The mobile phase flowed at a rate of 1 ml/minute and an eluent was measured by 320 nm of UV.
In order to examine whether polydatin is oxidized by CYP102A1(P450 BM3), oxidativity of polydatin was measured at a substrate concentration fixed to be 1000 μM in the P450 wild-type CYP102A1, the CYP102A1 mutant, the CYP102A1 chimera, and the mutant of CYP102A1 chimera. […]

B1: M16V3: chimera protein: heme domain of CYP102A1 Mutant#16 (R47L/F81I/F87V/E143G/L188Q/E267V) fused with reductase domain of natural variant CYP102A1.3 (protein)
chain: TIKEMPQPKTFGELKNLPLLNTDKPVQALMKIADELGEIFKFEAPGLVTRYLSSQRLIKEACDESRFDKNLSQALKFVRDFAGDGIVTSWTHEKNWKKAHNILLPSFSQQAMKGYHAMMVDIAVQLVQKWERLNADEHIEVPGDMTRLTLDTIGLCGFNYRFNSFYRDQPHPFITSMVRALDEAMNKQQRANPDDPAYDENKRQFQEDIKVMNDLVDKIIADRKASGEQSDDLLTHMLNGKDPETGEPLDDENIRYQIITFLIAGHVTTSGLLSFALYFLVKNPHVLQKAAEEAARVLVDPVPSYKQVKQLKYVGMVLNEALRLWPTAPAFSLYAKEDTVLGGEYPLEKGDELMVLIPQLHRDKTIWGDDVEEFRPERFENPSAIPQHAFKPFGNGQRACIGQQFALHEATLVLGMMLKHFDFEDHTNYELDIKETLTLKPEGFVVKAKSKKIPLGGIPSPSTEQSAKKVRKKVENAHNTPLLVLYGSNMGTAEGTARDLADIAMSKGFAPQVATLDSHAGNLPREGAVLIVTASYNGHPPDNAKQFVDWLDQASADDVKGVRYSVFGCGDKNWATTYQKVPAFIDETLAAKGAENIADRGEADASDDFEGTYEEWREHMWSDVAAYFNLDIENSEDNKSTLSLQFVDSAADMPLAKMHGAFSANVVASKELQQLGSERSTRHLEIALPKEASYQEGDHLGVIPRNYEGIVNRVTARFGLDASQQIRLEAEEEKLAHLPLGKTVSVEELLQYVELQDPVTRTQLRAMAAKTVCPPHKVELEALLEKQAYKEQVLAKRLTMLELLEKYPACEMEFSEFIALLPSISPRYYSISSSPHVDEKQASITVSVVSGEAWSGYGEYKGIASNYLANLQEGDTITCFVSTPQSGFTLPKDSETPLIMVGPGTGVAPFRGFVQARKQLKEQGQSLGEAHLYFGCRSPHEDYLYQEELENAQNEGIITLHTAFSRVPNQPKTYVQHVMERDGKKLIELLDQGAHFYICGDGSQMAPDVEATLMKSYADVYEVSEADARLWLQQLEEKGRYAKDVWAG
modifications: CYP102A1 chimeric protein M16V3 aa seq
As a reminder, the Km is the concentration of substrate that gives half-maximal velocity. Consider B1, for which the “kcat, astringin formation” value came to 0.00417 ± 0.0005 s⁻¹. Moreover, the Km (read-out: Km, astringin formation) stood at 390 ± 111 µM.
